In assay [1] the target is recombinant gp120 used for isothermal titration calorimetry (strain not stated) (HIV-1 (strain not stated)) (UniProt P04578). As to the kind of experiment: ITC; 102 µM SVN titrated into the cell with 1.6 µM gp120; 30 °C; 10 mM sodium phosphate pH 7.4, 3 mM sodium azide; fitted to one set of identical sites. A general note: ITC needs no label: the signal is the heat of the interaction.

Assay [2] shares this target. The assay is described as above. This is another data set of the same source.

Like-named read-outs stand apart in the source and are kept apart here.

scytovirin (SVN), full-size, E. coli-produced, sequence (P86041 whole entry): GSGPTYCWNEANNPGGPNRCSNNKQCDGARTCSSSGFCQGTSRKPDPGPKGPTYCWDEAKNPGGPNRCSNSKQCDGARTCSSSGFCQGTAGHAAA

The term Kd denotes a measure of binding affinity in units of concentration. For the substance “scytovirin (SVN), full-size, E. coli-produced (from UniProt P86041 1-95) (natural protein)”, in assay [1], the Kd was found to be 1500 nM. In addition, in assay [2], the dissociation constant (Kd) stood at 1630 nM, the dH is -6.45 kcal/mol and the stoichiometry N (SVN per gp120) was 5.

These data come from article PMC9034974, “Physicochemical characterization of the recombinant lectin scytovirin and microbicidal activity of the SD1 domain produced in rice against HIV-1” (Plant Cell Reports, 2022).
